Laboratory results reported in US20100255006A1 (Takeda / Millennium, published 2010).
Blank lines part the entries; values can stand above or below the molecule they belong to.

Tests used:
[1] = molecular target: caspase-1 as expressed in the IL-1β secretion assays (UniProt P29466); experiment: cell-based or functional assay
[2] = molecular target: T1, CARD of caspase-1 (mammalian two-hybrid construct) (UniProt P29466 1-91); experiment: mammalian two-hybrid in 293T cells, pFR-Luc firefly reporter
T1 construct: domain: CARD; also called the CARD of caspase-1; not shown: two-hybrid fusion partner from a pCMV/AD or pCMV/BD plasmid
T1 sequence (looked up): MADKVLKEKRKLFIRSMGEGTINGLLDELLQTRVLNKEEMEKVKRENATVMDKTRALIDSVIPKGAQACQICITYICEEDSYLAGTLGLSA
Method: CARD-5 is a relatively small protein containing an N-terminal PYRIN domain and a C-terminal CARD domain (see, e.g., Masumoto et al. (1999) J. Biol. Chem. 274:33835-38). To identify whether the CARD domain of a CARD-containing protein interacted with the CARD of CARD-5, mammalian two-hybrid analysis was carried out using the CARD domains of 22 CARD-containing proteins (FIG. 13A). Mammalian two-hybrid assays were performed as described by Wang et al. (2001) J. Biol. Chem. 276:21405-21409. 293T cells were transfected with pCMV/AD and pCMVIBD plasmids, pFR-Luc firefly reporter (Stratagene), and pRL-TK Renilla reporter (Promega).

[3] = molecular target: CARD-5 (ASC) as expressed in the NF-kB and IL-1β secretion assays (UniProt Q9ULZ3 1-195); experiment: cell-based or functional assay

secreted IL-1β (ELISA of supernatants of COS-7L cells co-transfected with mouse pro-IL-1β) [1]: 150 to 400 pg/mL
Molecule: CARD-5 (ASC) as expressed in the NF-kB and IL-1β secretion assays (from UniProt Q9ULZ3 1-195)

fold activation of luciferase activity (mammalian two-hybrid) [2]: 24 fold
B1: CARD of CARD-5 (mammalian two-hybrid construct) (other, UniProt Q9ULZ3 107-195, looked up)
chain: AAKPGLHFIDQHRAALIARVTNVEWLLDALYGKVLTDEQYQAVRAEPTNPSKMRKLFSFTPAWNWTCKDLLLQALRESQSYLVEDLERS
notes: domain: CARD; also called CARD domain of CARD-5; the CARD of CARD-5 (ASC); not shown: two-hybrid fusion partner from a pCMV/AD or pCMV/BD plasmid

NF-kB activity (relative luciferase activity, pNF-kB-Luc reporter in 293T cells) [3]: 150 fold
B2: full-length PYRIN-8 (PYRIN-8-FL, residues 1-1061 of SEQ ID NO:18) with a C-terminal FLAG epitope (other, not shown: small tags and cut ends)
chain: MLRTAGRDGLCRLSTYLEELEAVELKKFKLYLGTATELGEGKIPWGSMEKAGPLEMAQLLITHFGPEEAWRLALSTFERINRKDLWERGQREDLVRDTPPGGPSSLGNQSTCLLEVSLVTPRKDPQETYRDYVRRKFRLMEDRNARLGECVNLSHRYTRLLLVKEHSNPMQVQQQLLDTGRGHARTVGHQASPIKIETLFEPDEERPEPPRTVVMQGAAGIGKSMLAHKVMLDWADGKLFQGRFDYLFYINCREMNQSATECSMQDLIFSCWPEPSAPLQELIRVPERLLFIIDGFDELKPSFHDPQGPWCLCWEEKRPTELLLNSLIRKKLLPELSLLITTRPTALEKLHRLLEHPRHVEILGFSEAERKEYFYKYFHNAEQAGQVFNYVRDNEPLFTMCFVPLVCWVVCTCLQQQLEGGGLLRQTSRTTTAVYMLYLLSLMQPKPGAPRLQPPPNQRGLCSLAADGLWNQKILFEEQDLRKHGLDGEDVSAFLNMNIFQKDINCERYYSFIHLSFQEFFAAMYYILDEGEGGAGPDQDVTRLLTEYAFSERSFLALTSRFLFGLLNEETRSHLEKSLCWKVSPHIKMDLLQWIQSKAQSDGSTLQQGSLEFFSCLYEIQEEEFIQQALSHFQVIVVSNIASKMEHMVSSFCLKRCRSAQVLHLYGATYSADGEDRARCSAGAHTLLVQLPERTVLLDAYSEHLAAALCTNPNLIELSLYRNALGSRGVKLLCQGLRHPNCKLQNLRLKRCRISSSACEDLSAALIANKNLTRMDLSGNGVGFPGMMLLCEGLRHPQCRLQMIQLRKCQLESGACQEMASVLGTNPHLVELDLTGNALEDLGLRLLCQGLRHPVCRLRTLWLKICRLTAAACDELASTLSVNQSLRELDLSLNELGDLGVLLLCEGLRHPTCKLQTLRLGICRLGSAACEGLSVVLQANHNLRELDLSFNDLGDWGLWLLAEGLQHPACRLQKLWLDSCGLTAKACENLYFTLGINQTLTDLYLTNNALGDTGVRLLCKRLSHPGCKLRVLWLFGMDLNKMTHSRLAALRVTKPYLDIGC
